Experimental data as given in FireProtDB (doi:10.1021/bi00252a018).

Details: Streptomyces albogriseolus, Thermal, DSC, reversible: yes (70-85%), whole UniProt chain shown

B1: Subtilisin inhibitor wild type, P01006 (protein)
chain: MRNTGAGPSPSVSRPPPSAAPLSGAALAAPGDAPSALYAPSALVLTVGKGVSATTAAPERAVTLTCAPGPSGTHPAAGSACADLAAVGGDLNALTRGEDVMCPMVYDPVLLTVDGVWQGKRVSYERVFSNECEMNAHGSSVFAF
With B1 the Tm (pH 2.9, glycine 25 mM) was 44.5 °C, the Tm (pH 2.94, glycine 25 mM) was 43.9 °C and the Tm (pH 2.98, glycine 25 mM) was 45.4 °C. For the same protein, the Tm (pH 3.03, glycine 25 mM) was 47.8 °C, the Tm (pH 3.04, glycine 25 mM) was 47.6 °C and the Tm (pH 3.07, glycine 25 mM) was 48.8 °C. For the same protein, the Tm (pH 3.12, glycine 25 mM) was 50.5 °C, the Tm (pH 3.15, glycine 25 mM) was 51.3 °C and the Tm (pH 3.16, glycine 25 mM) was 52.2 °C. The Tm (pH 3.2, glycine 25 mM) was 53.6 °C, the Tm (pH 3.21, glycine 25 mM) was 53.4 °C and the Tm (pH 3.24, glycine 25 mM) was 54.3 °C. The Tm (pH 3.25, glycine 25 mM) was 55.7 °C, the Tm (pH 7, phosphate 25 mM) was 82 °C and the Tm (pH 9.2, glycine 25 mM) was 80.1 °C. It also gave a Tm (pH 9.75, glycine 25 mM) of 80.2 °C.
